Test results: patent US20050153395A1, “Unique integrin binding site in connective tissue growth factor (CTGF)” (CHILDREN'S HOSPITAL INC., priority 2003, published 2005)

Assays:
[1] = biological target: integrin αvβ3 on activated rat hepatic stellate cells (HSC) (rat) (UniProt Q8R2H2); experiment: cell-based or functional assay
[2] = biological target: integrin αvβ3 (purified, human) (human) (UniProt P06756); experiment: solid phase ELISA, coated ligand, purified αvβ3 (1 µg/ml)
Sequence of integrin αvβ3 (purified, human) (human) (P06756 31-1048, form in doubt, chain 1 of 2): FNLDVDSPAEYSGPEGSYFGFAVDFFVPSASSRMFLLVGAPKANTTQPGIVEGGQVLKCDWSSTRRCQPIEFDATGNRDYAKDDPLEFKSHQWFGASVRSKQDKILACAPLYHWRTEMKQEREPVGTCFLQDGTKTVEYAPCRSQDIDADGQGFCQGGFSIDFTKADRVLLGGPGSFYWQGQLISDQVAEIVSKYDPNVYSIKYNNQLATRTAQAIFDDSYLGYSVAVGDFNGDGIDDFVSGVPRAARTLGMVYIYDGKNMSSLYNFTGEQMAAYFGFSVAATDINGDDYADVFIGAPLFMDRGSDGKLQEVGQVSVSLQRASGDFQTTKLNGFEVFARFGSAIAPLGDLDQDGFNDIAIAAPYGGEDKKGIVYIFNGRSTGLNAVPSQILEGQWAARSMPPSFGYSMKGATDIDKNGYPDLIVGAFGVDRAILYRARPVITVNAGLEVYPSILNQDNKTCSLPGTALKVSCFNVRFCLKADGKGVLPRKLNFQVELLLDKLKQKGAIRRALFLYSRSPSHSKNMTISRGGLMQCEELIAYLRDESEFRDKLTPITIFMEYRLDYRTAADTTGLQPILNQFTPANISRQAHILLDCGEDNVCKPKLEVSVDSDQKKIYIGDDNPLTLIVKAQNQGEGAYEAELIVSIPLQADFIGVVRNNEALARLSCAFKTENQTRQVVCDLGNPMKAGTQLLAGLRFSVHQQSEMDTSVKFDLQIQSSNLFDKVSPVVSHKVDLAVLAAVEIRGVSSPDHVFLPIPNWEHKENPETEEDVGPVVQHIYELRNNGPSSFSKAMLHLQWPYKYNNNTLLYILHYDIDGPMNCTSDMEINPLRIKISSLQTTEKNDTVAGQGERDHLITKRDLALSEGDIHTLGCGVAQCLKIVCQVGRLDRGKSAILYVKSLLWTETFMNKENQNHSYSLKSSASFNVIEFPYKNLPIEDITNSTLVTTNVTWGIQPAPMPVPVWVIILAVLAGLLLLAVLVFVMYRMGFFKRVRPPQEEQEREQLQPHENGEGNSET
Sequence of integrin αvβ3 (purified, human) (human) (P05106 27-788, form in doubt, chain 2 of 2, further chain): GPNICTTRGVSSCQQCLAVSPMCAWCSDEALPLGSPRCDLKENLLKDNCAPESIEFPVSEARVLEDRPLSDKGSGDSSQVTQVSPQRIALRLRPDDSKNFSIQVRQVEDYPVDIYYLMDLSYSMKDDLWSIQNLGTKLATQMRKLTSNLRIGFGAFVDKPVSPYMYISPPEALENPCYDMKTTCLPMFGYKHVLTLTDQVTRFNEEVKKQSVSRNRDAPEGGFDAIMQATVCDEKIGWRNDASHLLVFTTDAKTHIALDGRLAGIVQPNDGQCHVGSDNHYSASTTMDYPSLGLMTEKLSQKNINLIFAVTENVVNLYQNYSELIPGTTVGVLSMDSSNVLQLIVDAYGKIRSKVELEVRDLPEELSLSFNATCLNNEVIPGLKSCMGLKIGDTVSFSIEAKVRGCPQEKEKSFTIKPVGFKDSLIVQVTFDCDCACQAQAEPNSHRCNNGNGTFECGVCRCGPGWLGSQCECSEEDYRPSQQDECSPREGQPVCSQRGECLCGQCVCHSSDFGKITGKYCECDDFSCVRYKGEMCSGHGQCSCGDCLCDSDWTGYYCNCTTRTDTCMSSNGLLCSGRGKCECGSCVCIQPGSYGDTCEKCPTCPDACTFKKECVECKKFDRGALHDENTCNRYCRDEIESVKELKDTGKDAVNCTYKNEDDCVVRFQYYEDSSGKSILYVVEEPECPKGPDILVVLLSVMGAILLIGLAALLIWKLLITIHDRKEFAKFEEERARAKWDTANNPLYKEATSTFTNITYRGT

Sequence of integrin αvβ3 on activated rat hepatic stellate cells (HSC) (rat) (Q8R2H2 26-787): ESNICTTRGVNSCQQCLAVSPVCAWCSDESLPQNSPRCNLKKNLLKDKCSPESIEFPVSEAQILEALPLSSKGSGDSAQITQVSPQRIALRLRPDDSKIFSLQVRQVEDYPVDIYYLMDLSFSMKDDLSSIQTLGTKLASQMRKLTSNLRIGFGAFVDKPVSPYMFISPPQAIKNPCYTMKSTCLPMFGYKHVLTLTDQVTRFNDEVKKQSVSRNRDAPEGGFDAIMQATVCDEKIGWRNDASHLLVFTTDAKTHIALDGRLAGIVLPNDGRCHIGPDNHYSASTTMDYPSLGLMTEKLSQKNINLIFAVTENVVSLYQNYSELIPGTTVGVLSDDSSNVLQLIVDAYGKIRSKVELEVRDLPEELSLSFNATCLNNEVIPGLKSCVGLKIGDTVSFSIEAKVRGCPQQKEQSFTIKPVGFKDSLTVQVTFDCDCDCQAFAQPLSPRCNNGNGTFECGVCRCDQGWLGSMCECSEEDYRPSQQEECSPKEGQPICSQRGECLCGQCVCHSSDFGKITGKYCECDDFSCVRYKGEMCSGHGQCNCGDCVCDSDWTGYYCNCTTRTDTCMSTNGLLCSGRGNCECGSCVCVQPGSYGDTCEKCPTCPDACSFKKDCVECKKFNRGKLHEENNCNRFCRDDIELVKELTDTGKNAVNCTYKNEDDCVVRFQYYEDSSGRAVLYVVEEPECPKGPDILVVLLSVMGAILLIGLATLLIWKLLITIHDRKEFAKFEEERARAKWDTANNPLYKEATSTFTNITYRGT

## vitronectin (ligand)
[1]
  decrease in HSC binding to vitronectin by RGD peptides (GRGDsp, Echistatin): 100%
[2]
  coating concentration at saturation of binding: 4 µg/mL
